Values of other authors in patent US20050261189A1, “Methods of promoting cardiac cell proliferation” (Hydra Biosciences, Inc., priority 2004, published 2005).

B1: Wnt9a: Wnt polypeptide (protein, UniProt O14904 30-365, looked up)
Protein Wnt-9a: YFGLTGSEPLTILPLTLEPEAAAQAHYKACDRLKLERKQRRMCRRDPGVAETLVEAVSMSALECQFQFRFERWNCTLEGRYRASLLKRGFKETAFLYAISSAGLTHALAKACSAGRMERCTCDEAPDLENREAWQWGGCGDNLKYSSKFVKEFLGRRSSKDLRARVDFHNNLVGVKVIKAGVETTCKCHGVSGSCTVRTCWRQLAPFHEVGKHLKHKYETALKVGSTTNEAAGEAGAISPPRGRASGAGGSDPLPRTPELVHLDDSPSFCLAGRFSPGTAGRRCHREKNCESICCGRGHNTQSRVVTRPCQCQVRWCCYVECRQCTQREEVYTCKG
B2: Wnt9b: Wnt polypeptide (protein, UniProt O14905 23-357, looked up)
Protein Wnt-9b: SYFGLTGREVLTPFPGLGTAAAPAQGGAHLKQCDLLKLSRRQKQLCRREPGLAETLRDAAHLGLLECQFQFRHERWNCSLEGRMGLLKRGFKETAFLYAVSSAALTHTLARACSAGRMERCTCDDSPGLESRQAWQWGVCGDNLKYSTKFLSNFLGSKRGNKDLRARADAHNTHVGIKAVKSGLRTTCKCHGVSGSCAVRTCWKQLSPFRETGQVLKLRYDSAVKVSSATNEALGRLELWAPARQGSLTKGLAPRSGDLVYMEDSPSFCRPSKYSPGTAGRVCSREASCSSLCCGRGYDTQSRLVAFSCHCQVQWCCYVECQQCVQEELVYTCKH
B3: Wnt16: Wnt polypeptide (protein, UniProt Q9UBV4 30-365, looked up)
Protein Wnt-16: NWMWLGIASFGVPEKLGCANLPLNSRQKELCKRKPYLLPSIREGARLGIQECGSQFRHERWNCMITAAATTAPMGASPLFGYELSSGTKETAFIYAVMAAGLVHSVTRSCSAGNMTECSCDTTLQNGGSASEGWHWGGCSDDVQYGMWFSRKFLDFPIGNTTGKENKVLLAMNLHNNEAGRQAVAKLMSVDCRCHGVSGSCAVKTCWKTMSSFEKIGHLLKDKYENSIQISDKTKRKMRRREKDQRKIPIHKDDLLYVNKSPNYCVEDKKLGIPGTQGRECNRTSEGADGCNLLCCGRGYNTHVVRHVERCECKFIWCCYVRCRRCESMTDVHTCK
B4: Wnt4: Wnt polypeptide (protein, UniProt P56705 23-351, looked up)
Protein Wnt-4: SNWLYLAKLSSVGSISEEETCEKLKGLIQRQVQMCKRNLEVMDSVRRGAQLAIEECQYQFRNRRWNCSTLDSLPVFGKVVTQGTREAAFVYAISSAGVAFAVTRACSSGELEKCGCDRTVHGVSPQGFQWSGCSDNIAYGVAFSQSFVDVRERSKGASSSRALMNLHNNEAGRKAILTHMRVECKCHGVSGSCEVKTCWRAVPPFRQVGHALKEKFDGATEVEPRRVGSSRALVPRNAQFKPHTDEDLVYLEPSPDFCEQDMRSGVLGTRGRTCNKTSKAIDGCELLCCGRGFHTAQVELAERCSCKFHWCCFVKCRQCQRLVELHTCR
B5: Wnt5b: Wnt polypeptide (protein, UniProt Q9H1J7 18-359, looked up)
Protein Wnt-5b: QLLTDANSWWSLALNPVQRPEMFIIGAQPVCSQLPGLSPGQRKLCQLYQEHMAYIGEGAKTGIKECQHQFRQRRWNCSTADNASVFGRVMQIGSRETAFTHAVSAAGVVNAISRACREGELSTCGCSRTARPKDLPRDWLWGGCGDNVEYGYRFAKEFVDAREREKNFAKGSEEQGRVLMNLQNNEAGRRAVYKMADVACKCHGVSGSCSLKTCWLQLAEFRKVGDRLKEKYDSAAAMRVTRKGRLELVNSRFTQPTPEDLVYVDPSPDYCLRNESTGSLGTQGRLCNKTSEGMDGCELMCCGRGYNQFKSVQVERCHCKFHWCCFVRCKKCTEIVDQYICK
B6: Wnt7b: Wnt polypeptide (protein, UniProt P56706 25-349, looked up)
Protein Wnt-7b: ALSSVVALGANIICNKIPGLAPRQRAICQSRPDAIIVIGEGAQMGINECQYQFRFGRWNCSALGEKTVFGQELRVGSREAAFTYAITAAGVAHAVTAACSQGNLSNCGCDREKQGYYNQAEGWKWGGCSADVRYGIDFSRRFVDAREIKKNARRLMNLHNNEAGRKVLEDRMQLECKCHGVSGSCTTKTCWTTLPKFREVGHLLKEKYNAAVQVEVVRASRLRQPTFLRIKQLRSYQKPMETDLVYIEKSPNYCEEDAATGSVGTQGRLCNRTSPGADGCDTMCCGRGYNTHQYTKVWQCNCKFHWCCFVKCNTCSERTEVFTCK
B7: Wnt11: Wnt polypeptide (protein, UniProt O96014 25-354, looked up)
Protein Wnt-11: IKWLALSKTPSALALNQTQHCKQLEGLVSAQVQLCRSNLELMHTVVHAAREVMKACRRAFADMRWNCSSIELAPNYLLDLERGTRESAFVYALSAAAISHAIARACTSGDLPGCSCGPVPGEPPGPGNRWGGCADNLSYGLLMGAKFSDAPMKVKKTGSQANKLMRLHNSEVGRQALRASLEMKCKCHGVSGSCSIRTCWKGLQELQDVAADLKTRYLSATKVVHRPMGTRKHLVPKDLDIRPVKDSELVYLQSSPDFCMKNEKVGSHGTQDRQCNKTSNGSDSCDLMCCGRGYNPYTDRVVERCHCKYHWCCYVTCRRCERTVERYVCK
B8: Wnt1: Wnt polypeptide (protein, UniProt P04628 28-370, looked up)
Proto-oncogene Wnt-1: ANSSGRWWGIVNVASSTNLLTDSKSLQLVLEPSLQLLSRKQRRLIRQNPGILHSVSGGLQSAVRECKWQFRNRRWNCPTAPGPHLFGKIVNRGCRETAFIFAITSAGVTHSVARSCSEGSIESCTCDYRRRGPGGPDWHWGGCSDNIDFGRLFGREFVDSGEKGRDLRFLMNLHNNEAGRTTVFSEMRQECKCHGMSGSCTVRTCWMRLPTLRAVGDVLRDRFDGASRVLYGNRGSNRASRAELLRLEPEDPAHKPPSPHDLVYFEKSPNFCTYSGRLGTAGTAGRACNSSSPALDGCELLCCGRGHRTRTQRVTERCNCTFHWCCHVSCRNCTHTRVLHECL
B9: Wnt2: Wnt polypeptide (protein, UniProt P09544 26-360, looked up)
Protein Wnt-2: SWWYMRATGGSSRVMCDNVPGLVSSQRQLCHRHPDVMRAISQGVAEWTAECQHQFRQHRWNCNTLDRDHSLFGRVLLRSSRESAFVYAISSAGVVFAITRACSQGEVKSCSCDPKKMGSAKDSKGIFDWGGCSDNIDYGIKFARAFVDAKERKGKDARALMNLHNNRAGRKAVKRFLKQECKCHGVSGSCTLRTCWLAMADFRKTGDYLWRKYNGAIQVVMNQDGTGFTVANERFKKPTKNDLVYFENSPDYCIRDREAGSLGTAGRVCNLTSRGMDSCEVMCCGRGYDTSHVTRMTKCGCKFHWCCAVRCQDCLEALDVHTCKAPKNADWTTAT
B10: Wnt3: Wnt polypeptide (protein, UniProt P56703 22-355, looked up)
Proto-oncogene Wnt-3: GYPIWWSLALGQQYTSLGSQPLLCGSIPGLVPKQLRFCRNYIEIMPSVAEGVKLGIQECQHQFRGRRWNCTTIDDSLAIFGPVLDKATRESAFVHAIASAGVAFAVTRSCAEGTSTICGCDSHHKGPPGEGWKWGGCSEDADFGVLVSREFADARENRPDARSAMNKHNNEAGRTTILDHMHLKCKCHGLSGSCEVKTCWWAQPDFRAIGDFLKDKYDSASEMVVEKHRESRGWVETLRAKYSLFKPPTERDLVYYENSPNFCEPNPETGSFGTRDRTCNVTSHGIDGCDLLCCGRGHNTRTEKRKEKCHCIFHWCCYVSCQECIRIYDVHTCK
B11: Wnt6: Wnt polypeptide (protein, UniProt Q9Y6F9 25-365, looked up)
Protein Wnt-6: LWWAVGSPLVMDPTSICRKARRLAGRQAELCQAEPEVVAELARGARLGVRECQFQFRFRRWNCSSHSKAFGRILQQDIRETAFVFAITAAGASHAVTQACSMGELLQCGCQAPRGRAPPRPSGLPGTPGPPGPAGSPEGSAAWEWGGCGDDVDFGDEKSRLFMDARHKRGRGDIRALVQLHNNEAGRLAVRSHTRTECKCHGLSGSCALRTCWQKLPPFREVGARLLERFHGASRVMGTNDGKALLPAVRTLKPPGRADLLYAADSPDFCAPNRRTGSPGTRGRACNSSAPDLSGCDLLCCGRGHRQESVQLEENCLCRFHWCCVVQCHRCRVRKELSLCL
B12: Wnt7a: Wnt polypeptide (protein, UniProt O00755 32-349, looked up)
Protein Wnt-7a: LGASIICNKIPGLAPRQRAICQSRPDAIIVIGEGSQMGLDECQFQFRNGRWNCSALGERTVFGKELKVGSREAAFTYAIIAAGVAHAITAACTQGNLSDCGCDKEKQGQYHRDEGWKWGGCSADIRYGIGFAKVFVDAREIKQNARTLMNLHNNEAGRKILEENMKLECKCHGVSGSCTTKTCWTTLPQFRELGYVLKDKYNEAVHVEPVRASRNKRPTFLKIKKPLSYRKPMDTDLVYIEKSPNYCEEDPVTGSVGTQGRACNKTAPQASGCDLMCCGRGYNTHQYARVWQCNCKFHWCCYVKCNTCSERTEMYTCK
B13: Wnt8a: Wnt polypeptide (protein, UniProt Q9H1J5 25-351, looked up)
Protein Wnt-8a: VNNFLITGPKAYLTYTTSVALGAQSGIEECKFQFAWERWNCPENALQLSTHNRLRSATRETSFIHAISSAGVMYIITKNCSMGDFENCGCDGSNNGKTGGHGWIWGGCSDNVEFGERISKLFVDSLEKGKDARALMNLHNNRAGRLAVRATMKRTCKCHGISGSCSIQTCWLQLAEFREMGDYLKAKYDQALKIEMDKRQLRAGNSAEGHWVPAEAFLPSAEAELIFLEESPDYCTCNSSLGIYGTEGRECLQNSHNTSRWERRSCGRLCTECGLQVEERKTEVISSCNCKFQWCCTVKCDQCRHVVSKYYCARSPGSAQSLGKGSA
B14: Wnt8b: Wnt polypeptide (protein, UniProt Q93098 23-351, looked up)
Protein Wnt-8b: WSVNNFLMTGPKAYLIYSSSVAAGAQSGIEECKYQFAWDRWNCPERALQLSSHGGLRSANRETAFVHAISSAGVMYTLTRNCSLGDFDNCGCDDSRNGQLGGQGWLWGGCSDNVGFGEAISKQFVDALETGQDARAAMNLHNNEAGRKAVKGTMKRTCKCHGVSGSCTTQTCWLQLPEFREVGAHLKEKYHAALKVDLLQGAGNSAAGRGAIADTFRSISTRELVHLEDSPDYCLENKTLGLLGTEGRECLRRGRALGRWERRSCRRLCGDCGLAVEERRAETVSSCNCKFHWCCAVRCEQCRRRVTKYFCSRAERPRGGAAHKPGRKP

Test system: one or more non-cardiac cells types
Conditions: cited from earlier work

Which “Wnt signaling pathway shown in one or more non-cardiac cell types” value does the source give for Wnt10b: Wnt polypeptide here?
The value was “signal via the canonical pathway”.

With B1 as the molecule, how does the “Wnt signaling pathway shown in one or more non-cardiac cell types” value read?
The value was “signal via the canonical pathway”.

With B2 as the molecule, how does the “Wnt signaling pathway shown in one or more non-cardiac cell types” value read?
Its value is “signal via the canonical pathway”.

With B3 as the molecule, how does the “Wnt signaling pathway shown in one or more non-cardiac cell types” value read?
The value was “signal via the canonical pathway”.

For B4, which “Wnt signaling pathway shown in one or more non-cardiac cell types” value is on record?
Its value is “signal via the non-canonical signaling pathway”.

With B5 as the molecule, how does the “Wnt signaling pathway shown in one or more non-cardiac cell types” value read?
Its value is “signal via the non-canonical signaling pathway”.

For B6, which “Wnt signaling pathway shown in one or more non-cardiac cell types” value is on record?
Its value is “signal via the non-canonical signaling pathway”.

Which “Wnt signaling pathway shown in one or more non-cardiac cell types” value does the source give for B7 here?
The value was “signal via the non-canonical signaling pathway”.

Which “Wnt signaling pathway shown in one or more non-cardiac cell types” value does the source give for B8 here?
The value was “signal via the canonical pathway”.

For B9, which “Wnt signaling pathway shown in one or more non-cardiac cell types” value is on record?
The value was “signal via the canonical pathway”.

For B10, which “Wnt signaling pathway shown in one or more non-cardiac cell types” value is on record?
The value was “signal via the canonical pathway”.

Which “Wnt signaling pathway shown in one or more non-cardiac cell types” value does the source give for B11 here?
Its value is “signal via the canonical pathway”.

Which “Wnt signaling pathway shown in one or more non-cardiac cell types” value does the source give for B12 here?
The value was “signal via the canonical pathway”.

Which “Wnt signaling pathway shown in one or more non-cardiac cell types” value does the source give for B13 here?
Its value is “signal via the canonical pathway”.

Which “Wnt signaling pathway shown in one or more non-cardiac cell types” value does the source give for B14 here?
The value was “signal via the canonical pathway”.
